Experimental data reported in patent US6774106 (Amgen, dated 2004).

Tests used:
[1] = target: T1, human TACI expressed on 293 cells (phTACI vector) (human, UniProt O14836 1-293); test: FACS on transfected 293 cells, G70/APRIL-Flag then FITC anti-Flag antibody
T1 construct: also called hTACI gene
T1 sequence: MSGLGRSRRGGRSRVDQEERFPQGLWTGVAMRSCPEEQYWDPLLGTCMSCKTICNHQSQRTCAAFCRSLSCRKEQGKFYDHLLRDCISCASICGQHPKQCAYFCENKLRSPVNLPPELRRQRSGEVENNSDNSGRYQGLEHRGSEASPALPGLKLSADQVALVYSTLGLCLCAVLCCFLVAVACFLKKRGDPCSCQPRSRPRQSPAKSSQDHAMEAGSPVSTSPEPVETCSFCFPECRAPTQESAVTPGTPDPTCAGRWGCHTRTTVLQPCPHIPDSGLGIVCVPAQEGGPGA
Description: (§1) FIGS. 14A, 14B and 14C show soluble mouse G70/APRIL binding to 293 cells expressing the BCMA gene. Human 293 cells transfected with the pmBCMA and pcDNA3 vectors were incubated with G70/APRIL-Flag, followed by FITC-conjugated anti-Flag antibody staining for FACS analysis. A. 293 cells transfected with pcDNA3 vector only. B. 293 cells transfected with antisense pmBCMA vector. C. 293 cells transfected with sense pmBCMA vector.
(§2) Human 293 cells transfected with the phTACI and pcDNA3 vectors were incubated with G70/APRIL-Flag, followed by FITC-conjugated anti-Flag antibody staining for FACS analysis.

[2] = target: T2, mouse BCMA expressed on 293 cells (sense pmBCMA vector) (mouse, UniProt O88472 1-185); test: as above
T2 construct: also called exogenous BCMA; BCMA gene
T2 sequence: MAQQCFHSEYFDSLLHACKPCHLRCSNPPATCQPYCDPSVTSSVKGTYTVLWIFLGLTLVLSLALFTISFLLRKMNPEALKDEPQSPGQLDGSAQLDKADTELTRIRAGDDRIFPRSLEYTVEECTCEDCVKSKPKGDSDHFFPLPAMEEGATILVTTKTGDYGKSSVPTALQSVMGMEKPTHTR
Description: as §1, §2

binding result [1]: binds
binding result [2]: binds
B1: Soluble murine APRIL-Flag protein (FLAG-tagged soluble mouse APRIL) (ligand)
chain: MDYKDDDDKKHKKKHSVLHLVPVNITSKDSDVTEVMWQPVLRRGRGLEAQGDIVRVWDTGIYLLYSQVLFHDVTFTMGQVVSREGQGRRETLFRCIRSMPSDPDRAYNSCYSAGVFHLHQGDIITVKIPRANAKLSLSPHGTFLGFVKL
notes: also called Flag-APRIL; Flag-mAPRIL
